Data reported in patent US20230398228A1, “ERIBULIN-BASED ANTIBODY-DRUG CONJUGATES AND METHODS OF USE” (EISAI R&D MANAGEMENT CO., LTD., priority 2016, published 2023).
Values joined by “and” are separate entries in the source; they are usually repeats but may differ in a detail not shown here. Equal entries are not always repeated.

Columns and labels:
[1] = Maximum tolerated dose of MORAb-202 in CD-1 mice; format: in vivo, mouse
Protocol: Body weight was measured prior to dose on the dosing day, 24 hours post dose, and three times a week thereafter. […] Two weeks after dosing, the terminal body weight was measured and recorded. Euthanized mice at the end of the study (and if any mouse euthanized or found dead during the study) were processed for necropsy. Organs were examined for signs of tissue damage.

OVCAR3 cells = assay: Crystal Violet cytotoxicity assay (Examples 1 and 2), OVCAR3; details: Example 1
Protocol: Typically, test reagents were serial diluted 1:4 in 2 mL deep-well dilution plates, starting at 1 μM (10 dilutions total). 100 μL of diluted samples were added to the cell plates (starting concentration of test samples at 500 nM). […] Medium was discarded, plates were washed once with 200 μL DPBS, stained with 50 μL of 0.2% Crystal Violet solution at room temperature for 15 min, and then washed extensively with tap water. Plates were air-dried, and Crystal Violet was dissolved with 200 μL of 1% SDS solution. Plates were read at 570 nm. Data was analyzed using GraphPad Prism 6. Assays were performed using a seeding density of 1,000 cells per well and compound exposure was for a total of 5 days. When shorter-term exposure was desired, medium containing cytotoxic agents was removed after 4 hours and replaced with fresh growth medium prior to 5-day incubation. For OVCAR3, CaOV3, and NCI-H2110, cells were seeded at 3,000 cells/well and incubated for 5 days with ADC.
SJSA-1 cells are a human osteosarcoma tumor cell line that are negative for folate receptor alpha.
Typically, test reagents were serially-diluted 1:4 in 2 mL deep-well dilution plates, starting at 1 μM (10 dilutions total). 100 μL of diluted samples were added to the cell plates (starting concentration of test samples at 100 nM). […] Plates were read at 570 nm. Data was analyzed using GraphPad Prism 6.

[2] = system: OD-BRE-0631 TNBC patient-derived xenograft; details: 5 mg/kg single dose, five days post-treatment

Substance: MORAb-003-maleimido-PEG2-Val-Cit-pAB-eribulin [MORAb-202]
- Body weight of individual mice ([1]; 10 mg/kg single bolus i.v., CD-1 mice, day 0 post Rx): 22.60 g and 23.50 g and 21.80 g
- Body weight, group mean ([1]; 10 mg/kg single bolus i.v., CD-1 mice, day 0 post injections): 22.6 g
- Body weight of individual mice ([1]; 10 mg/kg single bolus i.v., CD-1 mice, day 1 post Rx): 22.80 g and 23.80 g
- Body weight, group mean ([1]; 10 mg/kg single bolus i.v., CD-1 mice, day 1 post injections): 23.2 g
- Body weight of individual mice ([1]; 10 mg/kg single bolus i.v., CD-1 mice, day 2 post Rx): 23.30 g and 24.00 g and 22.90 g
- Body weight, group mean ([1]; 10 mg/kg single bolus i.v., CD-1 mice, day 2 post injections): 25.4 g
- Body weight of individual mice ([1]; 10 mg/kg single bolus i.v., CD-1 mice, day 4 post Rx): 23.30 g (2×) and 23.90 g
- Body weight, group mean ([1]; 10 mg/kg single bolus i.v., CD-1 mice, day 4 post injections): 23.5 g
- Body weight of individual mice ([1]; 10 mg/kg single bolus i.v., CD-1 mice, day 7 post Rx): 24.80 g and 25.20 g and 24.90 g
- Body weight, group mean ([1]; 10 mg/kg single bolus i.v., CD-1 mice, day 7 post injections): 25.0 g
- Body weight of individual mice ([1]; 10 mg/kg single bolus i.v., CD-1 mice, day 9 post Rx): 24.90 g and 25.30 g and 25.00 g
- Body weight, group mean ([1]; 10 mg/kg single bolus i.v., CD-1 mice, day 9 post injections): 25.1 g
- Body weight of individual mice ([1]; 10 mg/kg single bolus i.v., CD-1 mice, day 11 post Rx): 24.30 g (2×) and 25.10 g
- Body weight, group mean ([1]; 10 mg/kg single bolus i.v., CD-1 mice, day 11 post injections): 24.6 g
- Body weight of individual mice ([1]; 10 mg/kg single bolus i.v., CD-1 mice, day 14 post Rx): 25.80 g and 25.60 g and 25.70 g
- Body weight, group mean ([1]; 10 mg/kg single bolus i.v., CD-1 mice, day 14 post injections): 25.7 g
- Body weight of individual mice ([1]; 20 mg/kg single bolus i.v., CD-1 mice, day 0 post Rx): 27.40 g and 26.20 g and 21.00 g
- Body weight, group mean ([1]; 20 mg/kg single bolus i.v., CD-1 mice, day 0 post injections): 24.9 g
- Body weight of individual mice ([1]; 20 mg/kg single bolus i.v., CD-1 mice, day 1 post Rx): 28.80 g and 27.50 g and 21.40 g
- Body weight, group mean ([1]; 20 mg/kg single bolus i.v., CD-1 mice, day 1 post injections): 25.9 g
- Body weight of individual mice ([1]; 20 mg/kg single bolus i.v., CD-1 mice, day 2 post Rx): 29.30 g and 29.00 g and 22.10 g
- Body weight, group mean ([1]; 20 mg/kg single bolus i.v., CD-1 mice, day 2 post injections): 26.8 g
- Body weight of individual mice ([1]; 20 mg/kg single bolus i.v., CD-1 mice, day 4 post Rx): 30.20 g and 31.00 g
- Body weight, group mean ([1]; 20 mg/kg single bolus i.v., CD-1 mice, day 4 post injections): 28.1 g
- Body weight of individual mice ([1]; 20 mg/kg single bolus i.v., CD-1 mice, day 7 post Rx): 29.60 g and 32.00 g and 24.00 g
- Body weight, group mean ([1]; 20 mg/kg single bolus i.v., CD-1 mice, day 7 post injections): 28.5 g
- Body weight of individual mice ([1]; 20 mg/kg single bolus i.v., CD-1 mice, day 9 post Rx): 30.80 g and 31.70 g and 23.40 g
- Body weight, group mean ([1]; 20 mg/kg single bolus i.v., CD-1 mice, day 9 post injections): 28.6 g
- Body weight of individual mice ([1]; 20 mg/kg single bolus i.v., CD-1 mice, day 11 post Rx): 31.00 g and 32.40 g and 23.80 g
- Body weight, group mean ([1]; 20 mg/kg single bolus i.v., CD-1 mice, day 11 post injections): 29.1 g
- Body weight of individual mice ([1]; 20 mg/kg single bolus i.v., CD-1 mice, day 14 post Rx): 33.20 g and 32.40 g and 24.10 g
- Body weight, group mean ([1]; 20 mg/kg single bolus i.v., CD-1 mice, day 14 post injections): 29.9 g
- Body weight of individual mice ([1]; 40 mg/kg single bolus i.v., CD-1 mice, day 0 post Rx): 23.80 g and 23.30 g and 21.70 g
- Body weight, group mean ([1]; 40 mg/kg single bolus i.v., CD-1 mice, day 0 post injections): 22.9 g
- Body weight of individual mice ([1]; 40 mg/kg single bolus i.v., CD-1 mice, day 1 post Rx): 23.60 g and 23.50 g and 21.60 g
- Body weight, group mean ([1]; 40 mg/kg single bolus i.v., CD-1 mice, day 1 post injections): 22.9 g
- Body weight of individual mice ([1]; 40 mg/kg single bolus i.v., CD-1 mice, day 2 post Rx): 23.60 g and 24.60 g and 21.80 g
- Body weight, group mean ([1]; 40 mg/kg single bolus i.v., CD-1 mice, day 2 post injections): 23.3 g
- Body weight of individual mice ([1]; 40 mg/kg single bolus i.v., CD-1 mice, day 4 post Rx): 24.40 g and 24.10 g and 22.70 g
- Body weight, group mean ([1]; 40 mg/kg single bolus i.v., CD-1 mice, day 4 post injections): 23.7 g
- Body weight of individual mice ([1]; 40 mg/kg single bolus i.v., CD-1 mice, day 7 post Rx): 25.10 g and 25.50 g and 23.40 g
- Body weight, group mean ([1]; 40 mg/kg single bolus i.v., CD-1 mice, day 7 post injections): 24.7 g
- Body weight of individual mice ([1]; 40 mg/kg single bolus i.v., CD-1 mice, day 9 post Rx): 25.80 g and 25.20 g and 23.70 g
- Body weight, group mean ([1]; 40 mg/kg single bolus i.v., CD-1 mice, day 9 post injections): 24.9 g
- Body weight of individual mice ([1]; 40 mg/kg single bolus i.v., CD-1 mice, day 11 post Rx): 25.30 g and 25.00 g and 23.80 g
- Body weight, group mean ([1]; 40 mg/kg single bolus i.v., CD-1 mice, day 11 post injections): 24.7 g
- Body weight of individual mice ([1]; 40 mg/kg single bolus i.v., CD-1 mice, day 14 post Rx): 25.70 g and 25.30 g and 26.30 g
- Body weight, group mean ([1]; 40 mg/kg single bolus i.v., CD-1 mice, day 14 post injections): 25.8 g
- Body weight of individual mice ([1]; 80 mg/kg single bolus i.v., CD-1 mice, day 0 post Rx): 21.80 g and 26.50 g and 25.80 g
- Body weight, group mean ([1]; 80 mg/kg single bolus i.v., CD-1 mice, day 0 post injections): 24.7 g
- Body weight of individual mice ([1]; 80 mg/kg single bolus i.v., CD-1 mice, day 1 post Rx): 23.10 g and 27.80 g (2×)
- Body weight, group mean ([1]; 80 mg/kg single bolus i.v., CD-1 mice, day 1 post injections): 26.2 g
- Body weight of individual mice ([1]; 80 mg/kg single bolus i.v., CD-1 mice, day 2 post Rx): 23.30 g and 28.30 g (2×)
- Body weight, group mean ([1]; 80 mg/kg single bolus i.v., CD-1 mice, day 2 post injections): 26.6 g
- Body weight of individual mice ([1]; 80 mg/kg single bolus i.v., CD-1 mice, day 4 post Rx): 23.50 g and 29.50 g and 28.60 g
- Body weight, group mean ([1]; 80 mg/kg single bolus i.v., CD-1 mice, day 4 post injections): 27.2 g
- Body weight of individual mice ([1]; 80 mg/kg single bolus i.v., CD-1 mice, day 7 post Rx): 23.30 g and 30.40 g and 30.10 g
- Body weight, group mean ([1]; 80 mg/kg single bolus i.v., CD-1 mice, day 7 post injections): 27.9 g
- Body weight of individual mice ([1]; 80 mg/kg single bolus i.v., CD-1 mice, day 9 post Rx): 23.60 g and 31.00 g and 30.20 g
- Body weight, group mean ([1]; 80 mg/kg single bolus i.v., CD-1 mice, day 9 post injections): 28.3 g
- Body weight of individual mice ([1]; 80 mg/kg single bolus i.v., CD-1 mice, day 11 post Rx): 23.10 g and 29.10 g and 29.40 g
- Body weight, group mean ([1]; 80 mg/kg single bolus i.v., CD-1 mice, day 11 post injections): 27.2 g
- Body weight of individual mice ([1]; 80 mg/kg single bolus i.v., CD-1 mice, day 14 post Rx): 21.70 g and 28.40 g and 28.90 g
- Body weight, group mean ([1]; 80 mg/kg single bolus i.v., CD-1 mice, day 14 post injections): 26.3 g
- toxicity, in words ([1]; doses up to 80 mg/kg via bolus intravenous administration): no toxicity
- maximum tolerated dose (MTD) ([1]; single bolus intravenous dose, CD-1 mice): above 80 mg/kg
- body weight loss compared with PBS control, in words ([1]; single i.v. dose 10, 20, 40 or 80 mg/kg): No significant body weight loss
- cytotoxicity on OVCAR3 cells, in words (OVCAR3 cells): potent cytotoxicity
- cancer associated fibroblast structure by anti-α-SMA-FITC IHC, in words [2]: diminish the structure of cancer associated fibroblasts
- tumor cell occupation by IHC with anti-human IgG antibody, in words [2]: occupies folate receptor alpha-expressing tumor cells
